Biological target: T1, anthrax lethal factor (LF) (Bacillus anthracis, strain , UniProt P15917)
T1 construct: source: purified; produced in Dr. Nick Duesbery's lab at Van Andel Research Institute
Test: ELISA
Settings: both partners purified

T1 sequence (P15917 34-809): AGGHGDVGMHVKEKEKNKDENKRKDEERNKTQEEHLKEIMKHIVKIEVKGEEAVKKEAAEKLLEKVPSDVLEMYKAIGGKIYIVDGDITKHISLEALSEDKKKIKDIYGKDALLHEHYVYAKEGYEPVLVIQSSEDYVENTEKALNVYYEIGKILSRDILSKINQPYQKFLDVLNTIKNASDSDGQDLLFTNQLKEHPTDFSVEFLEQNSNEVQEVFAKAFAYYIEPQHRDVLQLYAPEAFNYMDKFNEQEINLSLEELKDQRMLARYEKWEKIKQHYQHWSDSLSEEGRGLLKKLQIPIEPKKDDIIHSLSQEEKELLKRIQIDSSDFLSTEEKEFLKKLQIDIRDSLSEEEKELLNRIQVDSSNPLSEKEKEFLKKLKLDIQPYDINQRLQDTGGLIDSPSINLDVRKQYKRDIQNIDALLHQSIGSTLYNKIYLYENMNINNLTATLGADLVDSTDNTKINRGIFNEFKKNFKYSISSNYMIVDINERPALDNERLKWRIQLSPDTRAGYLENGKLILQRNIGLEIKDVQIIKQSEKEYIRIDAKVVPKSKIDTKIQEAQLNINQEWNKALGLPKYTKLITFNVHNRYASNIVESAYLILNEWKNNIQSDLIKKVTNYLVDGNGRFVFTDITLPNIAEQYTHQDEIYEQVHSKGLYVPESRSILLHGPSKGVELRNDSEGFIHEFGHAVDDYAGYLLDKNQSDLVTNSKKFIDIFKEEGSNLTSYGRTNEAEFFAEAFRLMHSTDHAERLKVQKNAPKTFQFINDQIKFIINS

B1:  (Fab, V domains shown)
VH: EVQLQQSGAELVKPGASVKLSCTASGFNIKDSYMHWVKQRPEQGLEWIGRIDPANGNTKYDPKFQGKATITVDTSSNTAYLQLSSLTSEDTAVYYCTRLDYWGQGTTLTVS
VL: ENVLTQSPAIMSASLGEKVTMSCRASSSVNYMYWYQQKSDASPKLWIYSTSNLAPGVPARFSGSGSGNSYSLTISSMEGEDAATYYCQQFTSSPSALTFGAGTKLEIK
notes: also called LF8-Fab; chimeric anti-LF Fab
Ka: 3.46e+07 M⁻¹

From article PMC3687597 (Clinical and Developmental Immunology, 2013)
